The values below come from publication PMC3617294, “Novel Tryptophan Metabolism by a Potential Gene Cluster That Is Widely Distributed among Actinomycetes” (The Journal of Biological Chemistry, 2013).

One series addresses SCO7468 (Streptomyces coelicolor, UniProt Q8CJJ9). Nature of the series: methanol denaturation and reverse-phase HPLC of co-purified flavin. The series is classed as binding. The note with it: tightly bound.
Substrate in series [1]: N[C@@H](Cc1c[nH]c2ccccc12)C(=O)O
Description: purified protein. The note with it: DMAPP 1 mM fixed, 2 mM MgCl2, 100 mM Tris-HCl pH 8.0, 30 °C. The class given is biochemical, Streptomyces coelicolor.

Substrate in series [2]: CC(C)=CCOP(=O)(O)OP(=O)(O)O
Nature of the series: purified protein. The note with it: L-tryptophan 1 mM fixed, 2 mM MgCl2, 100 mM Tris-HCl pH 8.0, 30 °C. The series is classed as biochemical, Streptomyces coelicolor.

Substrate in series [3]: N[C@@H](Cc1c[nH]c2ccccc12)C(=O)O
Nature of the series: LC-MS/MS quantification of aldoxime product (IAOx). The class given is biochemical, Streptomyces coelicolor. The conditions noted are these: 1 mM NADPH, 20 μM FAD, 100 mM Tris-HCl pH 8.0, 30 °C.

Substrate in series [4]: CC(C)=CCc1ccc2[nH]cc(C[C@H](N)C(=O)O)c2c1
Description: LC-MS/MS quantification of aldoxime product (5-DMAIAOx). The class given is biochemical, Streptomyces coelicolor. The conditions noted are these: 1 mM NADPH, 20 μM FAD, 100 mM Tris-HCl pH 8.0, 30 °C.

The Km is the concentration of substrate that gives half-maximal velocity. The kcat is the number of substrate molecules converted per active site and unit of time at saturation.

`Cc1cc2nc3c(=O)[nH]c(=O)nc-3n(C[C@H](O)[C@H](O)[C@H](O)COP(=O)(O)OP(=O)(O)OC[C@H]3O[C@@H](n4cnc5c(N)ncnc54)[C@H](O)[C@@H]3O)c2cc1C` [FAD]: the “methanol denaturation and reverse-phase HPLC of co-purified flavin” value on SCO7468 was “FAD existed in the recombinant SCO7468 protein as a tightly bound form”.

B1: SCO7467 (Streptomyces coelicolor A3(2)) (protein)
chain: MRAASTGADPQDASTLGSFTGGQLRRLGSVAGLSRADVETYAQVLTDALGPVAQRPLSLAPPTRTFLSDDHTPVEFSLSFRPGAAPAMRVLVEPGCGATSLADNGRAGLEAVRTMARRWHFTTDALDELLDLFLPPAPQGPLALWCALELRPGGVPGVKVYLNPAVGGEERSAATVREALRRLGHHQAFDSLPQGSGYPFLALDLGNWTEPRAKVYLRHDNLTAGRAARLSRTDSGLVPTAVEGFFRTAAGPGSDAGGLDGRPAQSCHSFTDPGAERPSGFTLYIPVRDYVRHDGEALARASTVLHHHGMDASVLHRALAALTERRPEDGVGLIAYLALAGQRDQPPRVTAYLSSEAYTVRPPVVETVRQPLSVG
notes: N-terminal His8 tag (pHIS8), expressed in E. coli BL21(DE3), Ni-NTA purified, 40 kDa, monomer
In the case of B1, in “purified protein [1]”, the Michaelis constant (Km) amounted to 80 ± 6 µM and the kcat stood at 0.40 ± 0.1 s⁻¹. Also, in “purified protein [2]”, the Michaelis constant (Km) stood at 50 ± 2 µM and the kcat was determined as 0.40 ± 0.1 s⁻¹.

B2: SCO7468 (Streptomyces coelicolor A3(2)) (protein)
chain: MRVCVIGAGLSGLAMGHALKERGISFVCLEKAPDVGGIWRQPGAGERGPGYQSLHLNTARQLTGYADFPMPSDYPLYPRHDQVAAYLRSFAEWAGLLDHVELRTEVLSVRQDSDGSWTVVSRDADGAQSARRFEQVVVASGHHTDPALPDPLPAGADSFAGTILHSLDYRDGGDFAGRRVVVVGLGASAVDIAADLSRHAERTLLSVRRGLHIVPKQVFGMSLDEIAEAPWWNEMPFAERRRWVEQALLVARGRLSDYGLPEPDHPILSSATTLSDEILSRIRHGAVTPKPAIASFESDRVVFTDGSSEAADTVVYCTGFHMTFPFLPPGCPVAADGAVELYRRIVPADRPGLYFVGLVRPAGALTRLVEAQAQWVARLVDGAAALPGTEEMREEISTYLAGIVERYGRTRGASIQVDVSPYLAEFREPLPV
B2: in series [3], the Michaelis-Menten constant (Km) entry is reported as “(3.3 ± 0.7) ×10^3 μM” and the kcat entry is “(5.2 ± 0.4) ×10^−3 s^−1”. Besides, in series [4], the Michaelis-Menten constant (Km) turned out to be 0.57 ± 0.1 µM and the kcat result is on record as “(8.2 ± 0.7) ×10^−3 s^−1”.
